Data published in US20230293649A1 (BIOVENTURES, published 2023).

What was measured:
[1] = molecular target: T1, E-cadherin, P12830
T1 chain: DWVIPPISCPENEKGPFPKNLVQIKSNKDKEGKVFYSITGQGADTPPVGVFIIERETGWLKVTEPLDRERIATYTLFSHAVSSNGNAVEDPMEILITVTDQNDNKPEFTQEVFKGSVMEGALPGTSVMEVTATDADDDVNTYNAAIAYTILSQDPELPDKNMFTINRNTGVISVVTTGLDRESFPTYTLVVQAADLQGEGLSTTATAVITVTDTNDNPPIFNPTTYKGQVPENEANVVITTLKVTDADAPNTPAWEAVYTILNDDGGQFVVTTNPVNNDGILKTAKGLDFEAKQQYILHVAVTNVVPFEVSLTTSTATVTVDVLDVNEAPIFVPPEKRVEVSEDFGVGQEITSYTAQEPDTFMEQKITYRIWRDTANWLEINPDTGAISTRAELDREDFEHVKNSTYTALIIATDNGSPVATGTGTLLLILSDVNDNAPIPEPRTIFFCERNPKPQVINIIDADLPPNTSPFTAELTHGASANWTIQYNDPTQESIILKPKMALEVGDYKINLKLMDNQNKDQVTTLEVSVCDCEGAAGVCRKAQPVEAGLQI

[2] = molecular target: T2, N-cadherin, P19022
T2 chain: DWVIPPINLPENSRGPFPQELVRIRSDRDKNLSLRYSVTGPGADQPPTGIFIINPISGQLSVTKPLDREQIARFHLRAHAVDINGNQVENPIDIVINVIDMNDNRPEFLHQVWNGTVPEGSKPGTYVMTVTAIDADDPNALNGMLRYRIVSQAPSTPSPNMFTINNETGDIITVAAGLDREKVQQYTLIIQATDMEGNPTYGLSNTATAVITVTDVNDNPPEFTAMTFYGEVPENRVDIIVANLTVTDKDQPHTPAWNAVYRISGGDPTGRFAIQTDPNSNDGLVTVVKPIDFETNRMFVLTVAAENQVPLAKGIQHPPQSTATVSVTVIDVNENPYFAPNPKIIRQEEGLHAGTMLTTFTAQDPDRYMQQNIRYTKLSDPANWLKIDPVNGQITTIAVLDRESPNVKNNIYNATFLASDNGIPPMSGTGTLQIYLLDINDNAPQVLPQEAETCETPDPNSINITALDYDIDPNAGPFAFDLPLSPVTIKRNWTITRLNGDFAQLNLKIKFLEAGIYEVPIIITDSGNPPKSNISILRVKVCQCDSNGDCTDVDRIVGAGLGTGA

[3] = molecular target: T3, recombinant CST6 (R&D Systems, Minneapolis, MN), Q15828
T3 chain: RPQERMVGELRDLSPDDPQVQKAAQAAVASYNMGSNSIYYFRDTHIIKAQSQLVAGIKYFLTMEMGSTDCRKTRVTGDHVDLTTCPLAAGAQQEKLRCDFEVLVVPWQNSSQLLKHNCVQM

[4] = molecular target: T4, cathepsin K (Cathepsin K Drug Discovery Kit, Enzo Life Sciences) (UniProt P43235 115-329, limits assumed); experiment: inhibition of cathepsin K cleavage of the fluorogenic substrate Z-Phe-Arg-AMC; non-linear regression of initial rates
T4 construct: also called CTSK; CatK
T4 sequence (looked up): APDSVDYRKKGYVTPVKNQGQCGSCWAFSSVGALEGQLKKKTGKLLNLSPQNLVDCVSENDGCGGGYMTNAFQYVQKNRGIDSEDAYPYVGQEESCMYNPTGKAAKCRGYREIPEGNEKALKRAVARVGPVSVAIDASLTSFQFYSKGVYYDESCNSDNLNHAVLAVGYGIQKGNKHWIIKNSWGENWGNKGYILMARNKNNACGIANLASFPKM
Method: The ability of recombinant CST6 (R&D Systems, Minneapolis, MN) to inhibit cathepsin K protease activity was assessed using the Cathepsin K Drug Discovery Kit (Enzo Life Sciences International, Plymouth Meeting, PA). Fluorimetric assays were done in triplicate in 96-well microtitre plates using cathepsin K, the fluorogenic synthetic substrate Z-Phe-Arg-AMC in the presence of the cathepsin K assay buffer. Inhibitory activity of CST6 towards cathepsin K was measured in serum-free conditioned media from the H929 cell line stably infected with pWPI or CST6 lentivirus. Conditioned media equating to 25 μg was added to each well and inhibitory activity was evaluated by measuring the residual enzyme activity. Recombinant CST6 was added to assays at various concentrations and the resultant fluorescence was measured using a SpectraMax M2 microplate reader (Molecular Devices, Sunnyvale, CA) with excitation at 380 nm and emission at 460 nm wavelengths. The initial rates from the CatK progress curves in the presence of predetermined concentrations of recombinant CST6 were subjected to non-linear regression analysis (Morrison and Walsh, 1988) using GraFit® software (Erithacus Software Limited, Surrey, UK) to determine the inhibition constant (Ki).

B1: cathepsin K (Cathepsin K Drug Discovery Kit, Enzo Life Sciences) (protein)
chain: T4 sequence (looked up)
cleavage of E-cadherin (in vitro assay) [1]: cathepsin K can cleave E- and N-cadherin using an in vitro assay | cleavage of N-cadherin (in vitro assay) [2]: cathepsin K can cleave E- and N-cadherin using an in vitro assay | cleavage of E- and N-cadherin by cathepsin K (in vitro assay) [3]: the addition of recombinant Cst6 can inhibit this cleavage

B2: recombinant CST6 (R&D Systems, Minneapolis, MN) (other, UniProt Q15828 29-149, looked up)
chain: T3 chain
notes: also called recombinant cystatin E/M; cystatin M/E
Ki [4]: 3.84 nM
